How the values were obtained:
[1] = biological target: T1, eIF4E (untagged, co-expressed with p20);His6x-p20 WT (Saccharomyces cerevisiae;Saccharomyces cerevisiae) (UniProt P07260+P12962); assay: MST; conditions: 5' m7GpppG cap (Vaccinia Capping System), Buffer A: 10 mM sodium phosphate pH 7.5, 100 mM NaCl, 2.5 mM MgCl2, 1 mM DTT, 0.05% NP40, MST at 25 C (proteins for capped RNA MST RED-tris-NTA labeled in …)
T1 sequence 1: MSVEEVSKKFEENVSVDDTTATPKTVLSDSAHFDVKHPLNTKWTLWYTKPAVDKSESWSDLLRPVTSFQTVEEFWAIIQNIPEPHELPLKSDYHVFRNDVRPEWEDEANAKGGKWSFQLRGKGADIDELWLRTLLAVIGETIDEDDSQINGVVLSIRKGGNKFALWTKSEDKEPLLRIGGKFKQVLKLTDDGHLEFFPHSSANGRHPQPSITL
T1 sequence 2: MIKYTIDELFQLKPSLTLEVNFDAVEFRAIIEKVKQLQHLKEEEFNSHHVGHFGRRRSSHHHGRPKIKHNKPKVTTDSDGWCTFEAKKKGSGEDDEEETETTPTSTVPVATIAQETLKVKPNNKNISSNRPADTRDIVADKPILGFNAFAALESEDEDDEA

[2] = biological target: T2, His6x-eIF4E;p20 N-terminal 18aa peptide (Saccharomyces cerevisiae;Saccharomyces cerevisiae) (UniProt P07260+P12962); assay: MST; conditions: equimolar 18aa p20 peptide; 5' m7GpppG cap (Vaccinia Capping System); Buffer A: 10 mM sodium phosphate pH 7.5, 100 mM NaCl, 2.5 mM MgCl2, 1 mM DTT, 0.05% NP40; MST at 25 C (proteins for capped RNA MST RED-tris-NTA labeled in …)
T2 sequence 1: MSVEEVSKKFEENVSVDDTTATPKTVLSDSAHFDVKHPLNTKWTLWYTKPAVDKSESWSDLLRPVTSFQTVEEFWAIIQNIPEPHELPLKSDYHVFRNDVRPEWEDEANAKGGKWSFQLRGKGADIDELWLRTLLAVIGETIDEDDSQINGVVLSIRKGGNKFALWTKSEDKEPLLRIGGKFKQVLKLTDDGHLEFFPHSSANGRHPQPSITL
T2 sequence 2: MIKYTIDELFQLKPSLTL

[3] = biological target: T3, eIF4E (untagged, co-expressed with p20);His6x-p20 6x mutant R55L;R56L;R57L;H60L;H61L;H62L (Saccharomyces cerevisiae;Saccharomyces cerevisiae) (UniProt P07260+P12962); assay: MST; conditions: 5' m7GpppG cap (Vaccinia Capping System); Buffer A: 10 mM sodium phosphate pH 7.5, 100 mM NaCl, 2.5 mM MgCl2, 1 mM DTT, 0.05% NP40; MST at 25 C (proteins for capped RNA MST RED-tris-NTA labeled in …)
T3 sequence 1: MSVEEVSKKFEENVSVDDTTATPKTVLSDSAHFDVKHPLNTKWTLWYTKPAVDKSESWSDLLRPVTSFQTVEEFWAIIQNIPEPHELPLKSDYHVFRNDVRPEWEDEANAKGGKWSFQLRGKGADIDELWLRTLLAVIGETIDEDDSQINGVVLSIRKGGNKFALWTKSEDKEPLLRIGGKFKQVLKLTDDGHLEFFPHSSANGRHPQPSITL
T3 sequence 2: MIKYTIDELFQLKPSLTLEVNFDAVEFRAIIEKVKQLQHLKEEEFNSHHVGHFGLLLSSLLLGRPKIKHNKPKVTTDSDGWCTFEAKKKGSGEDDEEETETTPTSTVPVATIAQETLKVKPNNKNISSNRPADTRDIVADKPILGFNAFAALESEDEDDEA

[4] = biological target: T1, eIF4E (untagged, co-expressed with p20);His6x-p20 WT (Saccharomyces cerevisiae;Saccharomyces cerevisiae); assay: EMSA; conditions: 5' m7GpppG cap (Vaccinia Capping System); Buffer A: 10 mM sodium phosphate pH 7.5, 100 mM NaCl, 2.5 mM MgCl2, 1 mM DTT, 0.05% NP40; MST at 25 C (proteins for capped RNA MST RED-tris-NTA labeled in …)
[5] = biological target: T3, eIF4E (untagged, co-expressed with p20);His6x-p20 6x mutant R55L;R56L;R57L;H60L;H61L;H62L (Saccharomyces cerevisiae;Saccharomyces cerevisiae); assay: EMSA; conditions: 5' m7GpppG cap (Vaccinia Capping System); Buffer A: 10 mM sodium phosphate pH 7.5, 100 mM NaCl, 2.5 mM MgCl2, 1 mM DTT, 0.05% NP40; MST at 25 C (proteins for capped RNA MST RED-tris-NTA labeled in …)
[6] = biological target: T4, eIF4E (untagged, co-expressed with p20);His6x-p20 WT (Saccharomyces cerevisiae;Saccharomyces …, UniProt P07260;P12962 1-213;1-161, |); assay: EMSA; Buffer A: 10 mM sodium phosphate pH 7.5, 100 mM NaCl, 2.5 mM MgCl2, 1 mM DTT, 0.05% NP40; MST at 25 C (proteins for capped RNA MST RED-tris-NTA labeled in buffer B: 20 mM HEPES-KOH pH 7.5, 50 mM NaCl, 1 mM DTT); EMSA 1.5% agarose, 1x TBE, temperature not stated; conditions: protein: recombinant;recombinant; tags: ;N-terminal His6x; copies: 1;1; label: 3' FAM
T4 sequence 1: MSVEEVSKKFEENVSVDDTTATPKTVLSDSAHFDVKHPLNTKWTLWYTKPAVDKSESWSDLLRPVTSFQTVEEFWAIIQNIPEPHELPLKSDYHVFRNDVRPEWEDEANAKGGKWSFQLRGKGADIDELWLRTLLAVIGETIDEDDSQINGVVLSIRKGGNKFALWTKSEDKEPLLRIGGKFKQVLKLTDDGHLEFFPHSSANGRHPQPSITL
T4 sequence 2: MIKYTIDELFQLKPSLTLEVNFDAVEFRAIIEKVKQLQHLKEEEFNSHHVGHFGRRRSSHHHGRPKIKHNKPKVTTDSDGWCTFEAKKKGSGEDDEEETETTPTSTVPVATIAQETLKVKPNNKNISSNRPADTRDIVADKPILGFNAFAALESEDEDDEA

[7] = biological target: T4, eIF4E (untagged, co-expressed with …); assay: MST; Buffer A: 10 mM sodium phosphate pH 7.5, 100 mM NaCl, 2.5 mM MgCl2, 1 mM DTT, 0.05% NP40; MST at 25 C (proteins for capped RNA MST RED-tris-NTA labeled in buffer B: 20 mM HEPES-KOH pH 7.5, 50 mM NaCl, 1 mM DTT); EMSA 1.5% agarose, 1x TBE, temperature not stated; conditions: protein: recombinant;recombinant; tags: ;N-terminal His6x; copies: 1;1; label: 3' FAM
[8] = biological target: T5, eIF4E (untagged, co-expressed with p20);His6x-p20 6x mutant (Saccharomyces cerevisiae;Saccharomyces …, UniProt P07260;P12962 1-213;1-161, |R55L;R56L;R57L;H60L;H61L;H62L); assay: as above; conditions: protein: recombinant;recombinant; tags: ;N-terminal His6x; copies: 1;1; label: 3' FAM
T5 sequence 1: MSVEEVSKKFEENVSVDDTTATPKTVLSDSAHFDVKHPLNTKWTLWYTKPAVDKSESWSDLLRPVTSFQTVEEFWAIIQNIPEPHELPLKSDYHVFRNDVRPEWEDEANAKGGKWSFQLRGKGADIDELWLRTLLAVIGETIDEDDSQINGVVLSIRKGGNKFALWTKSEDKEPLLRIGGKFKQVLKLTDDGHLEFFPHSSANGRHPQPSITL
T5 sequence 2: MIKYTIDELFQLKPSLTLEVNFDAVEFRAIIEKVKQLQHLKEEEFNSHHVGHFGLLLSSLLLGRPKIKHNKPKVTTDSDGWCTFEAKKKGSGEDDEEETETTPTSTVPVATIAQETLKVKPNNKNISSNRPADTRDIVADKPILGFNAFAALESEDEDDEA

| Molecule | Kd [1] | Kd ([1]; control of the 6x mutant experiment) | Kd [2] | Kd [3] | Kd [4] | Kd [5] | Kd [6] | Kd [7] | Kd [8] |
| --- | --- | --- | --- | --- | --- | --- | --- | --- | --- |
| GGGAACAAAAGCUGGUAAUCAAGAAUUACAAGAAACAAAAAUUCAAGUAAAUAACAGAUAAUAC [capped SSA1 5'UTR RNA, 64 nt] | 44.9 nM | 46.9 nM | 211 nM | 424 nM | 64.9 nM | 285 nM | – | – | – |
| GUAUUACAAGAAACAAAAAUUCAAGUAAAUAACAGAUAAU (ssRNA) [uncapped SSA1 5'UTR RNA, 40 nt] | – | – | – | – | – | – | 8800 nM | 6240 nM | 35500 nM |
